Data set [1] addresses Taxol-stabilized microtubules. The data set can be described thus: MT spin-down (co-sedimentation) assay with PHDP5 (1 mM) added as competitor to MT and dynamin 1.
Data set [2] deals with microtubules in mouse calyceal terminals (endogenous, assembled after h-tau loading), Q9ERD7.
microtubules in mouse calyceal terminals (endogenous, assembled after h-tau loading), Q9ERD7, sequence (Q9ERD7 whole entry, looked up): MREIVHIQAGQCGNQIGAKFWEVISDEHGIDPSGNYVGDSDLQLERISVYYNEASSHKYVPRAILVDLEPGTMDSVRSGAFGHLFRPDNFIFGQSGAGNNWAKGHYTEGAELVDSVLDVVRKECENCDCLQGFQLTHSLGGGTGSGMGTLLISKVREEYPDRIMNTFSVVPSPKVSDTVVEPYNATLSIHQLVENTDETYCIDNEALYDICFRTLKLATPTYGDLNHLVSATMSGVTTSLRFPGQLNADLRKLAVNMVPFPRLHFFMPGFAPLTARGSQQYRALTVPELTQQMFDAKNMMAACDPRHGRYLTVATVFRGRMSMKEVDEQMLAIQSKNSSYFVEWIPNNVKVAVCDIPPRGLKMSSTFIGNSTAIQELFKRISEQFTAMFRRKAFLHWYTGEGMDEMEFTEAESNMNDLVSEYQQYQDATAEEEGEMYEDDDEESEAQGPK

Turning to “His-tagged human dynamin 1 (from UniProt Q05193 1-864)”, the % of dynamin 1 in precipitates (ppts) relative to total amount in data set [1] was found to be 6.3%.

B1: dynamin 1 in mouse calyx of Held presynaptic terminals (endogenous) (protein)
chain: MGNRGMEDLIPLVNRLQDAFSAIGQNADLDLPQIAVVGGQSAGKSSVLENFVGRDFLPRGSGIVTRRPLVLQLVNSTTEYAEFLHCKGKKFTDFEEVRLEIEAETDRVTGTNKGISPVPINLRVYSPHVLNLTLVDLPGMTKVPVGDQPPDIEFQIRDMLMQFVTKENCLILAVSPANSDLANSDALKIAKEVDPQGQRTIGVITKLDLMDEGTDARDVLENKLLPLRRGYIGVVNRSQKDIDGKKDITAALAAERKFFLSHPSYRHLADRMGTPYLQKVLNQQLTNHIRDTLPGLRNKLQSQLLSIEKEVDEYKNFRPDDPARKTKALLQMVQQFAVDFEKRIEGSGDQIDTYELSGGARINRIFHERFPFELVKMEFDEKELRREISYAIKNIHGIRTGLFTPDLAFEATVKKQVQKLKEPSIKCVDMVVSELTSTIRKCSEKLQQYPRLREEMERIVTTHIREREGRTKEQVMLLIDIELAYMNTNHEDFIGFANAQQRSNQMNKKKTSGNQDEILVIRKGWLTINNIGIMKGGSKEYWFVLTAENLSWYKDDEEKEKKYMLSVDNLKLRDVEKGFMSSKHIFALFNTEQRNVYKDYRQLELACETQEEVDSWKASFLRAGVYPERVGDKEKASETEENGSDSFMHSMDPQLERQVETIRNLVDSYMAIVNKTVRDLMPKTIMHLMINNTKEFIFSELLANLYSCGDQNTLMEESAEQAQRRDEMLRMYHALKEALSIIGDINTTTVSTPMPPPVDDSWLQVQSVPAGRRSPTSSPTPQRRAPAVPPARPGSRGPAPGPPPAGSALGGAPPVPSRPGASPDPFGPPPQVPSRPNRAPPGVPRITISDP
For B1, in data set [2], the “dynamin immunofluorescence in permeabilised h-tau-loaded terminals against terminals without h-tau loading” value is “a 2.6-fold increase in dynamin signal”.

The record behind these values is patent US20260083826A1, “NEW SYNTHETIC DRUGS FOR TREATING ALZHEIMER'S DISEASE” (OKINAWA INSTITUTE OF SCIENCE AND TECHNOLOGY SCHOOL …, priority 2022, published 2026).
